Each substance was assayed against IFNAR receptors (IFNAR1 and IFNAR2) on WISH cells (human (endogenous in WISH)) (UniProt P17181) (assay: radioligand binding; in situ competition on WISH cells: ^125I-labeled wild type IFNα2 (200,000 cpm/well) with unlabeled IFN at ten concentrations (4-fold steps from 200 nM for the antagonists, 10 nM for IFNα2-α8tail), 1 hr at room temperature, culture medium + 0.1% sodium azide).

Substance | EC50
IFN-1ant_(Y85A) (ligand) | 2 nM
IFN-1ant_(Y85M) (ligand) | 0.8 nM
IFN-1ant_(N65A) (ligand) | 1.7 nM

Stronger by EC50, values ahead:

EC50 | Substance
0.5 nM | IFN-1ant (IFNα2 R120E with the α8-tail) (ligand)
0.15 nM | IFNα2-α8tail (ligand)
0.001 nM | YNS (IFNα2 N57Y, E58N and Q61S) (ligand)

From paper PMC4497658
